Measurements published in US20250213647A1, “CHEMOKINE RECEPTORS AND ALPHA1 ADRENERGIC RECEPTORS/VASOPRESSIN RECEPTORS 1A HETEROMERS AS DRUG TARGETS FOR DISEASE” (UNIVERSITY OF SOUTH FLORIDA, priority 2022, published 2025).
Where two headings read alike, the source gives them in different places. Values belong to the molecule of their own block, whether it stands above or below them.

Key:
CCR2 [1] = molecular target: T1, CCR2 (Homo sapiens, UniProt P41597); experiment: Chemotaxis assay, THP-1 cells toward CCL2 (CCR2-mediated); assay type: cell-based; set-up: host or cells: THP-1; settings: CCL2 10 nM, FIG. 23E
Description: Cell migration was measured employing the Neuroprobe (Gaithersburg, MD, USA) ChemoTx® Disposable Chemotaxis System. A 96-well Boyden-chamber (30 μL/well, 8 μm pores, 1×10^5 pores/cm^2 pore density) was selected for all chemotaxis experiments. Bottom wells of the Boyden-chamber were loaded with 30 μL of test substances at various concentrations. Top wells of the membrane were loaded with 25 μL of THP-1 cells, THP-1_ADRA1B^KO, wild type THP-1 cells after clonal expansion (=control for THP-1_ADRA1B^KO) or freshly isolated monocytes (200 cells/μL). THP-1 cells were suspended in depleted RPMI1640 (0.5% HyClone™ fetal bovine serum, Sigma); Freshly isolated monocytes were suspended in RPMI1640 (0.5% human platelet poor plasma, Sigma). After 3 hours, transmigrated cells were counted utilizing the Cytation 1 plate reader (BioTek) by direct imaging in high contrast bright field (4×) and post-imaging particle analyses with Gen5 (v3.05) Imaging & Microscopy Software (BioTek). The chemotactic index (CI) was calculated as the ratio of cells that transmigrated in the presence versus the absence of the test solutions.

CCR2 [2] = molecular target: T1, CCR2; experiment: BRET assay for β-arrestin recruitment, HEK293T with CCR2-Rluc and β-arrestin-YFP without α1b-AR; assay type: cell-based
Description: (§1) β-arrestin recruitment was measured by BRET, as described (Armando, 2014; Berchiche, 2011). In brief, HEK293T cells were plated in a 6-well plate and transfected with 0.1 μg of CCR2-RluII and 1.9 μg β-arrestin-YFP with 0.1 μg pcDNA3.1 or α1b-AR. One day after transfection, cells were re-plated into 96-well poly-L lysine precoated plates. After overnight incubation, cells were replaced with 0.1% glucose/PBS. Coelenterazine H in a final concentration of 5 μM was added to cells and incubated at room temperature for 3 min. […] The BRET changes were calculated by subtracting the BRET signal of untreated cells.

[3] = test system: THP-1 cells (CCR2-mediated Gαi signaling); experiment: Cyclic AMP measurement in forskolin-stimulated THP-1 cells; assay type: cell-based, human; settings: for % inhibition of cAMP production by CCL2: 100 nM CCL2, FIG. 2F
Description: (§2) Cyclic AMP amounts were measured using the cAMP complete enzyme immunoassay kit, acetylated format (Enzo Life Sciences). 4×10^5 cells were incubated with forskolin/isobutylmethylxanthine (10 μM/0.5 mM final concentrations) in 0.1% BSA/10 mM Hepes-buffered RPMI and treated with CCL2 in the presence or absence of 1 μM PE, 1 μM PT or 100 nM NE at 37° C. for 15 min. The cells were lysed by incubating with 0.1 M HCl at room temperature for 20 min. The cAMP amounts in the lysate supernatant were measured following the manufacturer's instructions.

CCR2 [4] = molecular target: T1, CCR2; experiment: Gαi activation assay (TRUPATH BRET), HEK293T cells transfected with CCR2 plus pcDNA3 (CCR2 alone); assay type: cell-based
Description: (§3) HEK293T cells were plated in a 6-well plate and transfected with 0.2 μg each of Gαi1-Rluc8, Gβ3 and Gγ9-GFP2 (Trupath) together with 0.2 μg of mouse or human CCR2 with either pcDNA3.1 or α1b-AR. One day after transfection, cells were trypsinized and replated to 96-well poly-L lysine precoated plates. After overnight incubation, cells were replaced with 0.1% glucose/PBS. Prolume Purple (NanoLight Tech.) or coelenterazine 400a in a final concentration of 5 μM were added in experiments with human or mouse CCR2, respectively, and incubated at room temperature for 3 min. Ligands at various concentrations were added to cells and incubated at room temperature for 5 min before luminescence was measured at 410 nm and 515 nm. […] The BRET changes were calculated by subtracting the BRET signal of untreated cells.

CXCR4 = settings: previous observations (Gao, 2018); cited from earlier work
CCR2:α1b-AR heteromers [5] = molecular target: T2, CCR2:α1b-AR heteromers (Homo sapiens, UniProt P35368+P41597); experiment: BRET assay for β-arrestin recruitment, HEK293T co-expressing CCR2-Rluc, β-arrestin-YFP and α1b-AR; assay type: cell-based; set-up: expressed in transfected cells; settings: CCL2 plus vehicle; FIG. 5D
Description: as §1

CCR2:α1b-AR heteromers [6] = molecular target: T2, CCR2:α1b-AR heteromers; experiment: PRESTO-Tango β-arrestin recruitment assay, HTLA cells with CCR2-Tango plus α1b-AR; assay type: cell-based; set-up: Tango module of the TANGO vector (C); expressed in transfected cells; host or cells: HTLA
Description: The assays were performed as described previously (Albee, 2017; Gao, 2022; Albee, 2018; Eby, 2017; Cheng, 2017). HTLA cells were seeded in a 6-well plate and transfected with 750 ng FLAG-CCR2-Tango together with 750 ng pcDNA3.1 or HA-α1b-AR using TransIT-2020 Transfection Reagent. The next day, cells (75,000 cells/well) were plated onto poly-L-Lysine pre-coated 96-well plates and allowed to attach to the plate surface for at least 4 hours prior to treatment. Cells were treated with receptor ligands at the concentrations indicated in the figure legends for 2 h and then replaced with fresh full medium and incubated overnight at 37° C., 5% CO2 in a humidified environment. The following morning, medium was replaced with a 100 μL 1:10 mixture of Bright-Glo (Promega) and PBS. Plates were then incubated at room temperature for 10 min before measuring luminescence on a Biotek Synergy II plate reader. Relative luminescence units (RLU) are expressed as fold changes of RLU vs unstimulated cells.

CCR2 [7] = molecular target: T1, CCR2; settings: higher for CCR2; cited from earlier work
α1b-AR:CCR2 heteromer = molecular target: T3, α1b-AR:CCR2 heteromer (Homo sapiens, UniProt P35368+P41597); experiment: Gαi activation assay (TRUPATH BRET), HEK293T cells transfected with CCR2 plus α1b-AR; assay type: cell-based
T3 construct: expressed in transfected cells; host or cells: HEK293T
Description: as §3

CCR2 [8] = molecular target: T1, CCR2; experiment: Radioligand competition binding assay, [125I]-CCL2, crude membrane preparations of THP-1 cells; set-up: host or cells: THP-1; settings: THP-1 cells pretreated with vehicle; mean±SE, n=3; read-out: IC50 of CCL2 to displace [125I]-CCL2
Description: Cells were then centrifuged at 30,000× g (20 min, 4° C.), the supernatant was discarded, and pelleted cell fragments were snap-frozen in liquid nitrogen. The cell pellets were resuspended in 50 mM HEPES, 5 mM MgCl2, 1 mM CaCl2, 0.1% w/v BSA, pH 7.2, and then incubated with 50 pM [^125I]-CCL2, 1× Xpert Protease Inhibitor Cocktail (GenDEPOT), and varying concentrations of CCL2 for 1.5 h at 25° C. Bound [^125I]-CCL2 was collected via vacuum filtration using buffer containing 10 mM HEPES (pH 7.4) and 0.5 M NaCl at 4° C., and a cell harvester (Brandel) equipped with glass fiber filters. Radioactivity was measured in a gamma counter at 70% efficiency.

THP-1_ADRA1B^KO cells = experiment: Cyclic AMP measurement in forskolin-stimulated THP-1_ADRA1B^KO cells; assay type: cell-based, human; settings: FIG. 2B
Description: as §2

mouse CCR2 = molecular target: T4, mouse CCR2 (Mus musculus, UniProt P51683); experiment: Gαi activation assay (TRUPATH BRET), HEK293T cells transfected with mouse CCR2; assay type: cell-based; settings: FIG. 9A
T4 construct: expressed in transfected cells; host or cells: HEK293T
Description: as §3

T2 sequence (P41597 whole entry): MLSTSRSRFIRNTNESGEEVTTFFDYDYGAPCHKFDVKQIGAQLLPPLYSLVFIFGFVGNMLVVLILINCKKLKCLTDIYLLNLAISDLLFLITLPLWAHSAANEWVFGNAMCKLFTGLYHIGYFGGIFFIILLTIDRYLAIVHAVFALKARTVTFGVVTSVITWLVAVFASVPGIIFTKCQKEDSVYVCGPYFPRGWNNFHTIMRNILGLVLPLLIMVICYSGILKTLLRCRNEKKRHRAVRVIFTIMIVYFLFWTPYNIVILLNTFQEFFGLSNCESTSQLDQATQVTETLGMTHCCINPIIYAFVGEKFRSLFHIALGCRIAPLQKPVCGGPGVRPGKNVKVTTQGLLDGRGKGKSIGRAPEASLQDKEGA
T2 sequence (P35368 whole entry): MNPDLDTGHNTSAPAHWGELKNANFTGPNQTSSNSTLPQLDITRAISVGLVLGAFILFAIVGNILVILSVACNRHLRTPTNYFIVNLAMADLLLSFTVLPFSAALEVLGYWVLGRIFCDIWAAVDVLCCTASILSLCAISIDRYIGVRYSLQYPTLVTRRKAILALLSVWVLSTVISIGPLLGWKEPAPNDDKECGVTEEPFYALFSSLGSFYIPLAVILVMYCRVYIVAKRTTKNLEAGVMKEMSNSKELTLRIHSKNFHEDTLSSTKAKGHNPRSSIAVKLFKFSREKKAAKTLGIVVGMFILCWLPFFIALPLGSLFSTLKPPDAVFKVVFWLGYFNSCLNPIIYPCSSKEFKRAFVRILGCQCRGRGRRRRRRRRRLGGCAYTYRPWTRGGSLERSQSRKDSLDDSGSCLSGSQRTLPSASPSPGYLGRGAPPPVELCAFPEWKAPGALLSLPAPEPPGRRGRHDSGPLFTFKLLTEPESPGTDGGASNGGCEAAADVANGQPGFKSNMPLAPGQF
T1 sequence (P41597 whole entry): as the sequence (P41597 whole entry) above
T3 sequence (P41597 whole entry): as above
T3 sequence (P35368 whole entry): as the sequence (P35368 whole entry) above
T4 sequence (P51683 whole entry): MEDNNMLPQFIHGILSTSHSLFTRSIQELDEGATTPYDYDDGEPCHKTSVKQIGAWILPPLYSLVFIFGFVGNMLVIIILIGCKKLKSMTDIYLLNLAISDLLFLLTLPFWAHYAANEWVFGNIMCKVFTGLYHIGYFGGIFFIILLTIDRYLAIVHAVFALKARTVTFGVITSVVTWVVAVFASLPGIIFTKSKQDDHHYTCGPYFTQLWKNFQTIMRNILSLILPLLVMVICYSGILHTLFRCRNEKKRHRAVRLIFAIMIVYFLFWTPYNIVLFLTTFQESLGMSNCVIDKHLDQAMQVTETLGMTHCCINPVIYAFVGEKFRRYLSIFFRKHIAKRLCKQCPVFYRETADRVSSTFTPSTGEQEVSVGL

Molecule: COc1ccc(C2(O)CCC(N3CC[C@@H](NC(=O)CNC(=O)c4cccc(C(F)(F)F)c4)C3)CC2)cn1 (some centres unmarked) [INCB3284]
inhibition of CCL2-induced chemotaxis (CCR2 [1]): more than 95%
effect on the CCL2-induced BRET signal (CCR2-Rluc / β-arrestin-YFP) (CCR2 [2]; 10 μM PE, PT or 100 nM INCB3284, FIG. 5C): could be inhibited

effect on CCL2-induced Gαi1 activation (CCR2 [4]; cells transfected with CCR2 alone, 10 μM PE or PT, FIG. 4B, 4E): did not affect
Molecule: NC[C@H](O)c1ccc(O)c(O)c1 [norepinephrine]
effect on the effects of CCL2 on cAMP production ([3]; forskolin-stimulated THP-1 cells, 1 μM PE, 1 μM PT or 100 nM NE, 15 min at 37° C., FIG. 4G, 4H): inhibited the effects of CCL2 on cAMP production

Molecule: COc1cc2nc(N3CCN(C(=O)c4ccco4)CC3)nc(N)c2cc1OC [prazosin]
CXCR4-mediated chemotaxis of primary human vascular smooth muscle cells (CXCR4): inhibit

EC50 (CCR2:α1b-AR heteromers [5]): 3.7 ± 0.5 nM
Top plateau, β-arrestin recruitment BRET (CCR2:α1b-AR heteromers [5]): 0.06±0.001
EC50 (CCR2:α1b-AR heteromers [6]; CCL2 alone, FIG. 5B): 1.6 ± 1.3 nM
efficacy to induce β-arrestin recruitment to CCR2 (CCR2:α1b-AR heteromers [6]; agonist alone): 43±5 fold change RLU
efficacy of CCL2 relative to phenylephrine to recruit β-arrestin to CCR2 (CCR2:α1b-AR heteromers [6]; higher): 18 fold
bottom plateau (BRET change), Gαi1 activation by CCL2 (CCR2 [4]; cells transfected with CCR2 alone, FIG. 1B): −0.03±0.001
EC50 (CCR2 [4]; cells transfected with CCR2 alone, FIG. 1B, read-out: EC50 of CCL2, Gαi1 activation): 3.31 nM
bottom plateau, Gαi1 activation by human CCL2 (CCR2 [4]; human CCR2, FIG. 9A): −0.058±0.004
EC50 (CCR2 [4]; human CCR2, FIG. 9A, read-out: EC50 of human CCL2, Gαi1 activation): 1.4 ± 0.8 nM
bottom plateau, CCL2-induced Gαi activation (α1b-AR:CCR2 heteromer; CCL2 plus vehicle, FIG. 4C): −0.04±0.002
EC50 (α1b-AR:CCR2 heteromer; CCL2 plus vehicle, FIG. 4C, read-out: EC50 of CCL2 to induce Gαi activation): 0.9 ± 0.25 nM
bottom plateau, CCL2-induced Gαi activation (α1b-AR:CCR2 heteromer; CCL2 plus vehicle, FIG. 4D): −0.04±0.002
EC50 (α1b-AR:CCR2 heteromer; CCL2 plus vehicle, FIG. 4D, read-out: EC50 of CCL2 to induce Gαi activation): 1.3 ± 0.4 nM
bottom plateau, CCL2-induced Gαi activation (α1b-AR:CCR2 heteromer; CCL2 plus vehicle, FIG. 4F): −0.042±0.002
EC50 (α1b-AR:CCR2 heteromer; CCL2 plus vehicle, FIG. 4F, read-out: EC50 of CCL2 to induce Gαi activation): 1.5 ± 0.5 nM
bottom plateau (BRET change), Gαi1 activation by CCL2 (α1b-AR:CCR2 heteromer; cells transfected with CCR2 plus α1b-AR, FIG. 1B): −0.037±0.001
EC50 (α1b-AR:CCR2 heteromer; cells transfected with CCR2 plus α1b-AR, FIG. 1B, read-out: EC50 of CCL2, Gαi1 activation): 0.94 ± 0.2 nM
IC50 (CCR2 [8]): 0.167 ± 0.023 nM
bottom plateau, Gαi1 activation by human CCL2 (mouse CCR2): −0.073±0.009
EC50 (mouse CCR2; read-out: EC50 of human CCL2, Gαi1 activation): 3.5 ± 3.1 nM
EC50 (CCR2 [2]; FIG. 5C, read-out: EC50 of CCL2, BRET between CCR2-Rluc and β-arrestin-YFP): 3.5 ± 0.9 nM
Molecule: CCL2: chemokine (C-C motif) ligand 2, cognate agonist of CCR2, CCR3 and CCR5
% inhibition of cAMP production by CCL2 ([3]; THP-1 cells incubated with non-targeting siRNA): 66±5%
% inhibition of cAMP production by CCL2 ([3]; THP-1 cells incubated with α1B-AR siRNA): 46±4%
reduction of cAMP levels by CCL2 ([3]; forskolin-stimulated THP-1 cells, 100 nM CCL2, 15 min at 37° C., FIG. 2B): 56±6%
binding affinity of CCL2 for CCR2 relative to CCR3 and CCR5 (CCR2 [7]): approximately 100 fold
inhibition of cAMP production by CCL2 (THP-1_ADRA1B^KO cells; forskolin-stimulated THP-1_ADRA1B^KO cells, 100 nM CCL2, 15 min at 37° C.): 30±4%

B1: CCL1: Chemokine (C-C motif) ligand 1, selective agonist of CCR8 (protein, UniProt P22362 24-96, looked up)
C-C motif chemokine 1: KSMQVPFSRCCFSFAEQEIPLRAILCYRNTSSICSNEGLIFKLKRGKEACALDTVGWVQRHRKMLRHCPSKRK
inhibition of forskolin-stimulated cAMP production by CCL1, THP1 vs THP-1_ADRA1B^KO cells (THP-1_ADRA1B^KO cells; 100 nM CCL1, 15 min at 37° C.): indistinguishable
